# Data as given in article PMC3769244.
# Assay: immunofluorescence, data not shown
# Conditions: glycan lost; control: untreated
protein,measurement,value
CLN5: tunicamycin (protein) parent chain: MAQEVDTAQGAEMRRGAGAARGRASWCWALALLWLAVVPGWSRVSGIPSRRHWPVPYKRFDFRPKPDPYCQAKYTFCPTGSPIPVMEGDDDIEVFRLQAPVWEFKYGDLLGHLKIMHDAIGFRSTLTGKNYTMEWYELFQLGNCTFPHLRPEMDAPFWCNQGAACFFEGIDDVHWKENGTLVQVATISGNMFNQMAKWVKQDNETGIYYETWNVKASPEKGAETWFDSYDCSKFVLRTFNKLAEFGAEFKNIETNYTRIFLYSGEPTYLGNETSVFGPTGNKTLGLAIKRFYYPFKPHLPTKEFLLSLLQIFDAVIVHKQFYLFYNFEYWFLPMKFPFIKITYEEIPLPIRNKTLSGL,localisation_or_trafficking,changes
